{"source": "patent US20080003178A1", "about": "(BIOINCEPT, published 2008)", "binders": {"B1": {"name": "FITC labeled sPIF-1(15) (peptide)", "peptide": "{FITC′-βAla}-MVRIKPGSANKPSDD", "notes": "also called FITC sPIF-1(15); FITC sPIF-1"}}, "biological_target": "T1, CD58 (human, UniProt P19256 29-250)", "T1 construct": "whole, on cells; also called platelet marker CD58", "T1 sequence": "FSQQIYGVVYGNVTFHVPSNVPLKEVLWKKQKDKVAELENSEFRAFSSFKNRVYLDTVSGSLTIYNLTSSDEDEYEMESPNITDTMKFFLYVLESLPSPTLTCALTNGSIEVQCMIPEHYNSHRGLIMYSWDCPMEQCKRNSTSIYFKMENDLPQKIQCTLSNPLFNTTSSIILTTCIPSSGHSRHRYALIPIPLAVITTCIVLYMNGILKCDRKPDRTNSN", "assay": "flow cytometry, FITC sPIF-1(15) on human blood cells; no binding to platelets", "note": "Primed or numbered codes have the meaning given here. No end group written: not given here. FITC′ = fluorescein label, attached via β-alanine spacer; βAla = NCCC(=O)O"}
{"binder": "B1", "values": [{"measurement": "binding result", "value": "no binding"}]}
